Test results taken from US20260130997A1 (BEAM THERAPEUTICS, published 2026).

What was measured:
Assay in all cases: binding to mutant CD45 D1-D2 protein relative to WT CD45 D1-D2; method not given
[1] = biological target: T1, mutant CD45 D1-D2 protein N263G, T264A (Homo sapiens, UniProt P08575 225-394, limits assumed)
T1 chain: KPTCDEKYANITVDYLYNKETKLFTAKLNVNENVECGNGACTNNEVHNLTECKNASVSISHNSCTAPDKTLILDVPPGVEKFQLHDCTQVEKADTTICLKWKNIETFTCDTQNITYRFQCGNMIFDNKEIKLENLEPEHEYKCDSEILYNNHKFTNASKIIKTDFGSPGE

[2] = biological target: T2, mutant CD45 D1-D2 protein N263S, T264A, T266A (Homo sapiens, UniProt P08575 225-394, limits assumed)
T2 chain: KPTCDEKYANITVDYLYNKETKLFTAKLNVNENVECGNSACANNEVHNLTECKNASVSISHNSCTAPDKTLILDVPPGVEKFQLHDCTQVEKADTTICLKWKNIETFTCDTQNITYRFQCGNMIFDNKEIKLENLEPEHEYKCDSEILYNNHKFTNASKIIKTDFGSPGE

[3] = biological target: T3, mutant CD45 D1-D2 protein T266A (Homo sapiens, UniProt P08575 225-394, limits assumed)
T3 chain: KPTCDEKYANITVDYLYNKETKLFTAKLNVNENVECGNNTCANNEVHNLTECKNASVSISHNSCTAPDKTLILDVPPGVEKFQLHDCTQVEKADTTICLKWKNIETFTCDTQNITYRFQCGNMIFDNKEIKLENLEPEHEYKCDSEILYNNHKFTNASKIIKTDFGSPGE

[4] = biological target: T4, mutant CD45 D1-D2 protein T266A, N267G (Homo sapiens, UniProt P08575 225-394, limits assumed)
T4 chain: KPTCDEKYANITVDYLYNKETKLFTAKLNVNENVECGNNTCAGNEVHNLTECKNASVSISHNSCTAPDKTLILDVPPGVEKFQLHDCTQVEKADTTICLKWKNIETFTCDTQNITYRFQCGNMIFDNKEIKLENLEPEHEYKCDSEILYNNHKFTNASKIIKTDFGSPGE

[5] = biological target: T5, mutant CD45 D1-D2 protein N267G, N268G (Homo sapiens, UniProt P08575 225-394, limits assumed)
T5 chain: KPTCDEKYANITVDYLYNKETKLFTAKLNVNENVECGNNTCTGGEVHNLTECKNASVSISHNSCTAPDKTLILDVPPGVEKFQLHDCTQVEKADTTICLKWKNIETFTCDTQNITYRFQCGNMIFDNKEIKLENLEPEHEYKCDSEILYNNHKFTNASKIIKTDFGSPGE

[6] = biological target: T6, mutant CD45 D1-D2 protein N286G (Homo sapiens, UniProt P08575 225-394, limits assumed)
T6 chain: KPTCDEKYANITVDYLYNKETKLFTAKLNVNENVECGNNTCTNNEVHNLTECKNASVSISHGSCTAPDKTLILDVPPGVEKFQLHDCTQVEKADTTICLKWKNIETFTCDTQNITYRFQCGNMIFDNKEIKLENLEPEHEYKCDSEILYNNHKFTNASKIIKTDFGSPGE

[7] = biological target: T7, mutant CD45 D1-D2 protein I283M, H285R (Homo sapiens, UniProt P08575 225-394, limits assumed)
T7 chain: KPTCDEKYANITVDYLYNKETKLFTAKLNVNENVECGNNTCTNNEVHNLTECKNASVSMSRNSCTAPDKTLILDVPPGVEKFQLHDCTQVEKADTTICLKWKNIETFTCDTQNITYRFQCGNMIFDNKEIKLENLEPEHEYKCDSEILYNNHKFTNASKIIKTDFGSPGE

[8] = biological target: T8, mutant CD45 D1-D2 protein I283M, H285R, N286G (Homo sapiens, UniProt P08575 225-394, limits assumed)
T8 chain: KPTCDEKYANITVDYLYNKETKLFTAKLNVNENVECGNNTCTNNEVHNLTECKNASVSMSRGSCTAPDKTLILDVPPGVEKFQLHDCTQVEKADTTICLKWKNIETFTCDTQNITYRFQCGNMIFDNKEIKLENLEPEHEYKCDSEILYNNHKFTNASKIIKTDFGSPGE

[9] = biological target: T9, mutant CD45 D1-D2 protein N253G, N255G (Homo sapiens, UniProt P08575 225-394, limits assumed)
T9 chain: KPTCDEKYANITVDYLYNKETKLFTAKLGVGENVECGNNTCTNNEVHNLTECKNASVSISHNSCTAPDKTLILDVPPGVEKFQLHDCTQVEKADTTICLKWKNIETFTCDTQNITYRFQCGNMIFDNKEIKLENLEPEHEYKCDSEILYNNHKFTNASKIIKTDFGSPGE

[10] = biological target: T10, mutant CD45 D1-D2 protein E259G (Homo sapiens, UniProt P08575 225-394, limits assumed)
T10 chain: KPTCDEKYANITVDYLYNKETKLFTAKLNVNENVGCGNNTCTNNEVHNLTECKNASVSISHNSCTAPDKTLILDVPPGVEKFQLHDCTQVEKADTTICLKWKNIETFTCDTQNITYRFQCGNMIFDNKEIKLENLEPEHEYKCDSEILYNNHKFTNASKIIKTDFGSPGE

B1: mAb U139AGL030-9 (mAb030-9) (antibody, mouse IgG1, kappa, V domains shown)
VH: EVKLLESGGGLVQPGGSLKLSCAASGFDFSRYWMSWVRQAPGKGLEWIGEINPTSSTINFTPSLKDKVFISRDNAKNTLYLQMSKVRSEDTALYYCARGNYYRYGDAMDYWGQGTSVTVSS
VL: DIALTQSPASLAVSLGQRATISCRASKSVSTSGYSYLHWYQQKPGQPPKLLIYLASNLESGVPARFSGSGSGTDFTLNIHPVEEEDAATYYCQHSRELPFTFGSGTKLEIKR
notes: In the biosensor assay the antibody was captured with Anti-Human IgG Fc Capture (AHC); also called mAb30-9; mAb039-9
- % Mutant Binding [1]: 106%
- % Mutant Binding [2]: 69.3%
- % Mutant Binding [3]: 73.4%
- % Mutant Binding [4]: 1.4%
- % Mutant Binding [5]: 1.3%
- % Mutant Binding [6]: 81.5%
- % Mutant Binding [7]: 1%
- % Mutant Binding [8]: 0.7%
- % Mutant Binding [9]: 44.9%
- % Mutant Binding [10]: 2.7%
